Results published in patent US20260193293A1, “PEPTIDES CAPABLE OF INHIBITING PROTEIN-PROTEIN INTERACTIONS AT GABAB1A SUBUNIT AND USES THEREOF” (UNIVERSITY OF COPENHAGEN, priority 2022, published 2026).
Values joined by “and” are separate entries in the source; they are usually repeats but may differ in a detail not shown here. Equal values may be shown once. Non-standard residues stand in square brackets, D forms with d. 2Nal = N[C@@H](Cc1ccc2ccccc2c1)C(=O)O; Sar = CNCC(=O)O

Assays:
[1] = target: Sushi domains (SD1/2) protein of the GABAB1a (GB1a) subunit, recombinant; assay: FP competition
Chain of Sushi domains (SD1/2) protein of the GABAB1a (GB1a) subunit, recombinant (Q9Z0U4 29-158): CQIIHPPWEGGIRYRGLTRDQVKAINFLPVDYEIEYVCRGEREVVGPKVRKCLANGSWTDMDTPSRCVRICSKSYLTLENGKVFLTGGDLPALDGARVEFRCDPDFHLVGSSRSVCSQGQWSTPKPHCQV

[2] = target: Sushi domains (SD1/2) protein of the GABAB1a (GB1a) subunit, recombinant; assay: FP inhibition, six-point, crude peptide of the solution array
[3] = target: Sushi domains (SD1/2) protein of the GABAB1a (GB1a) subunit, recombinant; assay: FP competition; remark: listed apart in the source
[4] = target: Sushi domains (SD1/2) protein of the GABAB1a (GB1a) subunit, recombinant; assay: FP competition; remark: listed apart in the source
[5] = target: Sushi domains (SD1/2) protein of the GABAB1a (GB1a) subunit, recombinant; assay: FP competition, N-methylation scan
[6] = target: Sushi domains (SD1/2) protein of GABAB1a (GB1a); assay: FP competition vs TAMRA AJAP-1probe
Chain of Sushi domains (SD1/2) protein of GABAB1a (GB1a) (Q9Z0U4 29-158): as above

[7] = target: Sushi domains (SD1/2) protein of the GABAB1a (GB1a) subunit, recombinant; assay: FP competition; end of the range assigned from the Ki values of Table 2
[8] = target: Sushi domains (SD1/2) protein of the GABAB1a (GB1a) subunit, recombinant; assay: FP competition with AJAP-1probe
[9] = target: Sushi domains (SD1/2) protein of the GABAB1a (GB1a) subunit, recombinant; assay: FP inhibition

**Q.** Which results are given for Ac-EDDSDVWWYGADTD-NH2 [… (APPWT mutant G211Y)]?
**A.** Ki [1]: 108 nM; Ki [2]: 167 nM

**Q.** With Ac-EDDSWVWWGGADTD-NH2 [… (APPWT mutant D207W)] as the binder, how does the Ki [1] read?
**A.** The Ki was 100 nM.

**Q.** And the Ki [2]?
**A.** The Ki was 78 nM.

**Q.** For Ac-PWAIVWGPTVSRED-NH2 [PIANPWT (Ac-…-NH2)], which Ki [1] is on record?
**A.** Its Ki is 762 nM.

**Q.** And the Ki [3]?
**A.** The Ki was 476 nM.

**Q.** For Ac-EDDSDVWWGGADTD-NH2 [APPWT (Ac-…-NH2)], which Ki [4] is on record?
**A.** Its Ki is 557 nM.

**Q.** And the Ki [2]?
**A.** The Ki was 635 nM.

B1: …(N-Me-G)ADTD (peptide)
peptide: Ac-EDDSDVWWG[Sar]ADTD-NH2
SMILES: CC(=O)N[C@@H](CCC(=O)O)C(=O)N[C@@H](CC(=O)O)C(=O)N[C@@H](CC(=O)O)C(=O)N[C@@H](CO)C(=O)N[C@@H](CC(=O)O)C(=O)N[C@H](C(=O)N[C@@H](Cc1c[nH]c2ccccc12)C(=O)N[C@@H](Cc1c[nH]c2ccccc12)C(=O)NCC(=O)N(C)CC(=O)N[C@@H](C)C(=O)N[C@@H](CC(=O)O)C(=O)N[C@H](C(=O)N[C@@H](CC(=O)O)C(N)=O)[C@@H](C)O)C(C)C
**Q.** How did the fold increased affinity against APPWT [5] turn out when B1 was run?
**A.** Its fold increased affinity against APPWT is 3 fold.

**Q.** What about the Ki [6] of the same binder?
**A.** The Ki was 161 nM.

**Q.** What about the Ki [1] of the same binder?
**A.** Its Ki is 161 nM.

**Q.** With Ac-RRRRRRRREDDDWIDWYDSDDD-NH2 [R8-16 (Ac-…-NH2)] as the binder, how does the Ki [1] read?
**A.** The Ki was 107 nM.

**Q.** What about the fold loss of affinity against the untagged peptide [7] of the same binder?
**A.** The fold loss of affinity against the untagged peptide was 12 to 33 fold.

**Q.** For Ac-EEDDSDVWWGGADTDYAD-NH2 [Peptide 36 (Ac-…-NH2)], which Ki [1] is on record?
**A.** Its Ki is 244 nM and 233 nM.

**Q.** And the Ki [8]?
**A.** The Ki was 244 nM.

B2: R4-20 (Ac-RRRREDDD(2Nala)…-NH2) (peptide)
peptide: Ac-RRRREDDD[2Nal]IDWYDSDDD-NH2
SMILES: CC[C@H](C)[C@H](NC(=O)[C@H](Cc1ccc2ccccc2c1)NC(=O)[C@H](CC(=O)O)NC(=O)[C@H](CC(=O)O)NC(=O)[C@H](CC(=O)O)NC(=O)[C@H](CCC(=O)O)NC(=O)[C@H](CCCNC(=N)N)NC(=O)[C@H](CCCNC(=N)N)NC(=O)[C@H](CCCNC(=N)N)NC(=O)[C@H](CCCNC(=N)N)NC(C)=O)C(=O)N[C@@H](CC(=O)O)C(=O)N[C@@H](Cc1c[nH]c2ccccc12)C(=O)N[C@@H](Cc1ccc(O)cc1)C(=O)N[C@@H](CC(=O)O)C(=O)N[C@@H](CO)C(=O)N[C@@H](CC(=O)O)C(=O)N[C@@H](CC(=O)O)C(=O)N[C@@H](CC(=O)O)C(N)=O
**Q.** For B2, which Ki [1] is on record?
**A.** Its Ki is 12 nM.

**Q.** And the fold higher affinity than 4R-16 [9]?
**A.** The fold higher affinity than 4R-16 was 2 fold.
